{
  "source": "paper PMC6210743",
  "about": "“Starch Synthesis in Ostreococcus tauri: The Starch-Binding Domains of Starch Synthase III-B Are Essential for Catalytic Activity” (Frontiers in Plant Science, 2018)",
  "proteins": {"B1": {"name": "OsttaSSIII-B (Ostreococcus tauri) (protein)", "chain": "ASVETQLDGTDHPRVFTVPATPVAGGALRVFADVERADALRSASGWKLIGGYNAWRVGEFTKDMIKVKGTSWVYADVNVDERAFSMDFVFKGDGEAYEKDEGQDFSLTVDFGPTPEEFEEMLKVIEMENKARDEANAFIDGQMARARESGAGASIEKYGRVICKTASGKPGVAGSTERVMWNKAYNPIGGDTDKLVLHVGFNGWCAGVEAKFDLVRATGEIKDENNDWWVADVPLRADAYLLDFVVSDVEESAWDNNEQANFTLAVETSDEEWAVLRELKFEEIRAMAFKKELAEKERKERRAKADAEAKAKAIEVGLKQQSYIIHTEPKVPQVGKPLKVFYNKNNTNLSWSDEIYMTGGFNRWSHEAAIEPVKMTPPGAGEEFFTVTVPRVPTDAWMVDFVFSSGVGEGAQYDNKSGRDYHLPTRGSTASKPPLHVCHIAVEMAPIAKVGGLADVVTAIGRAIQDNGHLVEIILPKYQFFNNSVLLGGKEYETHFDWAGTTIRVEKCKVEGLQCFFIEPQNNMFQTDSVYGRNDDAHRFNFFCNAALEFLVRTARQPDILHCHDWSSAEVARAYWEHYHHNGLTKPKVAFTIHNMNYGQAKLGEAVHHSQVATTVSPSYAGEVRGSPVIGNNGHKFTGVRNGIDPEIWDPETDIFVPVKYNADNQEEGKAAARAELRQRAGMTGWDDKPIVGVVSRLTAQKGVHLIKHAAHHTLSRGGQFVLLGSAPDPKIQGEFNGLANQLGGEDTGFFFAFDEPLSHLMYAGCDVILVPSMFEPCGLTQMISMRYGAVPVVRATGGLRDTVFDVDNEKERAAWEVGGSTDWKTDGDMTNGFSFEGTDEGSLNYALDRCLDAFYNDREWFRSLQKRVMLQDWSWNRPANDYEELYYKMIGR"}, "B2": {"name": "OsttaSSIII-B (Ostreococcus tauri; W304A) (protein)", "chain": "B1 chain with W254A"}, "B3": {"name": "OsttaSSIII-B (Ostreococcus tauri; W122A/Y124A) (protein)", "chain": "B1 chain with W72A, Y74A"}, "B4": {"name": "OsttaSSIII-B (Ostreococcus tauri; F138A) (protein)", "chain": "B1 chain with F88A"}, "B5": {"name": "OsttaSSIII-B (Ostreococcus tauri; W279A) (protein)", "chain": "B1 chain with W229A"}, "B6": {"name": "OsttaSSIII-B (Ostreococcus tauri; Y147A) (protein)", "chain": "B1 chain with Y97A"}, "B7": {"name": "OsttaSSIII-B CD (Ostreococcus tauri) (protein)", "chain": "LHVCHIAVEMAPIAKVGGLADVVTAIGRAIQDNGHLVEIILPKYQFFNNSVLLGGKEYETHFDWAGTTIRVEKCKVEGLQCFFIEPQNNMFQTDSVYGRNDDAHRFNFFCNAALEFLVRTARQPDILHCHDWSSAEVARAYWEHYHHNGLTKPKVAFTIHNMNYGQAKLGEAVHHSQVATTVSPSYAGEVRGSPVIGNNGHKFTGVRNGIDPEIWDPETDIFVPVKYNADNQEEGKAAARAELRQRAGMTGWDDKPIVGVVSRLTAQKGVHLIKHAAHHTLSRGGQFVLLGSAPDPKIQGEFNGLANQLGGEDTGFFFAFDEPLSHLMYAGCDVILVPSMFEPCGLTQMISMRYGAVPVVRATGGLRDTVFDVDNEKERAAWEVGGSTDWKTDGDMTNGFSFEGTDEGSLNYALDRCLDAFYNDREWFRSLQKRVMLQDWSWNRPANDYEELYYKMIGR"}},
  "key": {"[1]": {"substrate": "Nc1ncnc2c1ncn2[C@@H]1O[C@H](COP(=O)(O)OP(=O)(O)O[C@H]2O[C@H](CO)[C@@H](O)[C@H](O)[C@H]2O)[C@@H](O)[C@H]1O", "assay": "Pi release by alkaline phosphatase from ADP, Malachite Green assay", "type": "biochemical, Ostreococcus tauri", "details": "2 mg/ml glycogen as acceptor, 50 mM BICINE pH 8.0, 30°C", "description": "Pi release by alkaline phosphatase from ADP, Malachite Green assay on OsttaSSIII-B"}, "[2]": {"substrate": "Nc1ncnc2c1ncn2[C@@H]1O[C@H](COP(=O)(O)OP(=O)(O)O[C@H]2O[C@H](CO)[C@@H](O)[C@H](O)[C@H]2O)[C@@H](O)[C@H]1O", "assay": "Pi release by alkaline phosphatase from ADP, Malachite Green assay", "type": "biochemical, Ostreococcus tauri", "details": "2 mg/ml glycogen as acceptor, 50 mM BICINE pH 8.0, 30°C, nH 0.57", "description": "Pi release by alkaline phosphatase from ADP, Malachite Green assay on OsttaSSIII-B CD"}},
  "note": "Residue numbers refer to the chain shown, from its start. Numbers in names are those of the source.",
  "data": [
    {"protein": "B1", "values": [
      {"measurement": "K0.5", "setting": "[1]; nH 1.16", "result": "0.09 ± 0.02", "unit": "mM"},
      {"measurement": "Vmax", "setting": "[1]; nH 1.16", "result": 1.65, "unit": "µmol/min/mg"}
    ]},
    {"protein": "B2", "values": [
      {"measurement": "K0.5", "setting": "[1]; nH 0.80", "result": "0.15 ± 0.03", "unit": "mM"},
      {"measurement": "Vmax", "setting": "[1]; nH 0.80", "result": 0.31, "unit": "µmol/min/mg"}
    ]},
    {"protein": "B3", "values": [
      {"measurement": "K0.5", "setting": "[1]; nH 0.94", "result": "0.11 ± 0.01", "unit": "mM"},
      {"measurement": "Vmax", "setting": "[1]; nH 0.94", "result": 0.57, "unit": "µmol/min/mg"}
    ]},
    {"protein": "B4", "values": [
      {"measurement": "K0.5", "setting": "[1]; nH 1.06", "result": "0.07 ± 0.02", "unit": "mM"},
      {"measurement": "Vmax", "setting": "[1]; nH 1.06", "result": 0.23, "unit": "µmol/min/mg"}
    ]},
    {"protein": "B5", "values": [
      {"measurement": "K0.5", "setting": "[1]; nH 0.88", "result": "0.38 ± 0.11", "unit": "mM"},
      {"measurement": "Vmax", "setting": "[1]; nH 0.88", "result": 0.42, "unit": "µmol/min/mg"}
    ]},
    {"protein": "B6", "values": [
      {"measurement": "K0.5", "setting": "[1]; nH 0.78", "result": "0.07 ± 0.01", "unit": "mM"},
      {"measurement": "Vmax", "setting": "[1]; nH 0.78", "result": 1.1, "unit": "µmol/min/mg"}
    ]},
    {"protein": "B7", "values": [
      {"measurement": "K0.5", "setting": "[2]", "result": "0.12 ± 0.04", "unit": "mM"},
      {"measurement": "Vmax", "setting": "[2]", "result": 0.76, "unit": "µmol/min/mg"}
    ]}
  ]
}
